From the supplement of paper PMC6755084

B1: F1*; the commonest letter at each place (parent)
chain: GAGACCGCAACTGAAAAGTTGTTATCACTTGTCGTAAGACACTTTGGATGGGTTGAAGTTCTGCACGTAGAAGCAAAAGGC

Variants of: B1
Test: fraction ligated after 30 min (ligated reads / total reads); higher = more ligase activity
Settings: with F1*sub RNA substrate (template-directed ligation), 42 °C
Method in brief: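 Ligase ribozyme variants were made from oligo-pool templates by PCR amplification, T7 transcription and gel purification. After gel separation, ligated and unligated bands were reverse transcribed with barcoded primers and sequenced on a MiSeq, with core bases filtered at quality ≥20. The fraction ligated for each variant was the number of ligated reads divided by total reads.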

Variant | fraction ligated
T30G T44G | 0.798
T30G T44C | 0.808
G31A G34C | 0.769
G31A G34T | 0.796
G31A G34A | 0.804
G31C G50C | 0.0327
G31C G50A | 0.057
G31C G50T | 0.108
T30G A57C | 0.806
T30G A57T | 0.828
T30G A57G | 0.787
G31A G38C | 0.798
G31A G38T | 0.798
G31A G38A | 0.796
T30C A57T | 0.769
T30C G31A | 0.779
T30C G31C | 0.789
T30C G31T | 0.823
G31T G50T | 0.103
G31T G50A | 0.0382
G31T G50C | 0.0159
G31T T35C | 0.782
G31T T35A | 0.797
G31T T35G | 0.803

Variant | fraction ligated
T30C T32G C33G G38C A39C A41G | 0.831
T30G | 0.843
T30G A41C | 0.834
T30G A41G | 0.84
T30G A41T | 0.82
G31C G34A | 0.78
G31C G34T | 0.778
G31C G34C | 0.804
G31A C33A | 0.833
G31A C33T | 0.829
G31A C33G | 0.824
G31C G46T | 0.784
G31C G46A | 0.797
G31C G46C | 0.732
T30G C33G | 0.854
T30G C33T | 0.867
T30G C33A | 0.86
G31T C40A | 0.827
G31T C40G | 0.83
G31T C40T | 0.829
G31T A56T | 0.755
G31T A56G | 0.679
G31T A56C | 0.221
T30C T32C A39G A41G | 0.816

Variant | fraction ligated
G31T T43G | 0.76
G31T T43C | 0.78
G31T T43A | 0.778
G31C G55A | 0.809
G31C G55T | 0.794
G31C G55C | 0.14
G31A T32G | 0.837
G31A T32A | 0.809
G31A T32C | 0.811
G31T A48G | 0.49
G31T A48T | 0.0299
G31T A48C | 0.292
T30C G46T | 0.78
T30C G46A | 0.807
T30C G46C | 0.759
G31A A48G | 0.254
G31A A48C | 0.322
G31A A48T | 0.01
G31T A41C | 0.586
G31T A41G | 0.761
G31T A41T | 0.772
G31T T44C | 0.782
G31T T44G | 0.764
G31T T44A | 0.768

Variant | fraction ligated
G31A A57G | 0.851
G31A A57C | 0.819
G31A A57T | 0.796
T30G A37G | 0.852
T30G A37T | 0.86
T30G A37C | 0.849
T30C G31C T32C A39G C40G A41G | 0.867
G31T A39G | 0.754
G31T A39T | 0.792
G31T A39C | 0.769
G31T A37G | 0.792
G31T A37T | 0.815
G31T A37C | 0.78
G31A T43G | 0.807
G31A T43C | 0.797
G31A T43A | 0.815
T30G G46A | 0.791
T30G G46C | 0.776
T30G G46T | 0.785
G31A G46T | 0.777
G31A G46C | 0.524
G31A G46A | 0.845
T30C T44G | 0.812
T30C T44A | 0.807

Variant | fraction ligated
T30C T44C | 0.803
T30G G50A | 0.513
T30G G50T | 0.712
T30G G50C | 0.342
G31A T49A | 0.214
G31A T49G | 0.229
G31A T49C | 0.136
G31C A37T | 0.79
G31C A37G | 0.817
G31C A37C | 0.769
G31A | 0.812
G31T | 0.793
G31C | 0.79
G31A T45A | 0.395
G31A T45G | 0.137
G31A T45C | 0.0954
T30G G47C | 0.0588
T30G G47T | 0.15
T30G G47A | 0.654
T30G G31C T32G A39C C40G A41C | 0.85
G31C G38A | 0.811
G31C G38T | 0.819
G31C G38C | 0.778
T30C G38A | 0.797

Variant | fraction ligated
T30C G38C | 0.78
T30C G38T | 0.795
T30G G31C T32C A39G C40G A41C | 0.846
T30C G50T | 0.452
T30C G50A | 0.175
T30C G50C | 0.107
G31A T35C | 0.813
G31A T35A | 0.823
G31A T35G | 0.763
T30C C42G | 0.817
T30C C42A | 0.817
T30C C42T | 0.794
T30C G55T | 0.757
T30C G55C | 0.504
T30C G55A | 0.81
T30C T32G A39C A41G | 0.852
G31T T32C | 0.816
G31T T32G | 0.826
G31T T32A | 0.835
G31T G46C | 0.681
G31T G46A | 0.79
G31T G46T | 0.769
G31C T43C | 0.811
G31C T43A | 0.807

Variant | fraction ligated
G31C T43G | 0.761
T30G C40A | 0.854
T30G C40T | 0.819
T30G C40G | 0.81
T30C G31C T32G A39C C40G A41G | 0.862
G31T G47C | 0.0376
G31T G47T | 0.022
G31T G47A | 0.246
G31C C42T | 0.786
G31C C42G | 0.79
G31C C42A | 0.82
G31C C40G | 0.796
G31C C40A | 0.793
G31C C40T | 0.791
G31C A36G | 0.682
G31C A36T | 0.79
G31C A36C | 0.357
T30G A56C | 0.786
T30G A56G | 0.757
T30G A56T | 0.797
G31A C42A | 0.834
G31A C42G | 0.818
G31A C42T | 0.839
